pKd: −log10 of the molar value.

PN2-3N peptide (N-terminal helical region of PN2-3, aa 323-361 of CPAP), sequence (Q9HC77 323-361): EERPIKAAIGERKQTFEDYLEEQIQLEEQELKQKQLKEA
human CPAP PN2-3 domain (aa 319-394) EE343RR, sequence (Q9HC77 other isoform, or with tags, fused parts or gaps): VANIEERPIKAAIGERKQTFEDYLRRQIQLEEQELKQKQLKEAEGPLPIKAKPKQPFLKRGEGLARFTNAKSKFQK
human CPAP PN2-3 domain (aa 319-394), wild type, sequence (Q9HC77 319-394): as the sequence (Q9HC77 other isoform, or with tags, fused parts or gaps) above, with R25E, R26E counted along it

In the assay the target is tubulin heterodimer (porcine/bovine brain tubulin) (not stated (porcine or bovine brain)) (UniProt Q6B856). The assay is described as follows: ITC; PN2-3 proteins/peptides titrated into tubulin in the cell; 15 °C; 1xBRB80 (80 mM PIPES-K, 1 mM MgCl2, 1 mM EGTA, pH 6.8); one set of binding sites model; tubulin 9 μM for wild type and mutant PN2-3.
What is called pKd is −log10 of the Kd, conventionally taken in molar units. A lower pKd goes with a high Kd. In the case of “PN2-3N peptide (N-terminal helical region of PN2-3, aa 323-361 of CPAP) (from UniProt Q9HC77 323-361)”, the negative-log Kd (pKd) is 4.17.

“human CPAP PN2-3 domain (aa 319-394) EE343RR (from UniProt Q9HC77 319-394) (domain or fragment)” gave a negative-log Kd (pKd) of 6.71.

With “human CPAP PN2-3 domain (aa 319-394) F375A (from UniProt Q9HC77 319-394) (domain or fragment)”, the negative-log Kd (pKd) is 5.55.

For the substance “human CPAP PN2-3 domain (aa 319-394), wild type (from UniProt Q9HC77 319-394) (domain or fragment)”, the pKd is 7.59.

Values taken from PMC4912634.
